{"source": "patent US20140341881", "proteins": {"B1": {"name": "human kallikrein 14 (hK14) (protein)", "chain": "IIGGHTCTRSSQPWQAALLAGPRRRFLCGGALLSGQWVITAAHCGRPILQVALGKHNLRRWEATQQVLRVVRQVTHPNYNSRTHDNDLMLLQLQQPARIGRAVRPIEVTQACASPGTSCRVSGWGTISSPIARYPASLQCVNINISPDEVCQKAYPRTITPGMVCAGVPQGGKDSCQGDSGGPLVCRGQLQGLVSWGMERCALPGYPGVYTNLCKYRSWIEETMRDK"}, "B2": {"name": "human neutrophil elastase (HNE) (protein)", "chain": "IVGGRRARPHAWPFMVSLQLRGGHFCGATLIAPNFVMSAAHCVANVNVRAVRVVLGAHNLSRREPTRQVFAVQRIFENGYDPVNLLNDIVILQLNGSATINANVQVAQLPAQGRRLGNGVQCLAMGWGLLGRNRGIASVLQELNVTVVTSLCRRSNVCTLVRGRQAGVCFGDSGSPLVCNGLIHGIASFVRGGCASGLYPDAFAPVAQFVNWIDSIIQ"}}, "key": {"[1]": {"biological_target": "T1, CFP-GHRIN-YFP-6xHis substrate (clone F7)", "T1 chain": "GALGGGHRINGST"}, "[2]": {"biological_target": "T2, CFP-YQSLN-YFP-6xHis substrate (peptide F10)", "T2 chain": "GALGGYQSLNGST"}, "[3]": {"biological_target": "T3, CFP-TSYLN-YFP-6xHis substrate (peptide D7)", "T3 chain": "GALGGTSYLNGST"}, "[4]": {"biological_target": "T4, CFP-VGLYD-YFP-6xHis substrate (peptide F6)", "T4 chain": "GALGGVGLYDGST"}, "[5]": {"biological_target": "T5, CFP-EAPAK-YFP-6xHis substrate (clone G7)", "T5 chain": "GALGGEAPAKGST"}, "[6]": {"biological_target": "T6, CFP-RGKTN-YFP-6xHis substrate (peptide D9)", "T6 chain": "GALGGRGKTNGST"}, "[7]": {"biological_target": "T7, CFP-HETLK-YFP-6xHis substrate (clone G11)", "T7 chain": "GALGGHETLKGST"}, "[8]": {"biological_target": "T8, CFP-VGSLR-YFP-6xHis substrate (peptide G1)", "T8 chain": "GALGGVGSLRGST"}, "[9]": {"biological_target": "T9, CFP-TVDYA-YFP-6xHis substrate (peptide G9)", "T9 chain": "GALGGTVDYAGST"}, "[10]": {"biological_target": "T10, CFP-SAVRP-YFP-6xHis substrate (clone E11)", "T10 chain": "GALGGSAVRPGST"}, "[11]": {"biological_target": "T11, CFP-VVMKD-YFP-6xHis substrate (peptide E10)", "T11 chain": "GALGGVVMKDGST"}, "[12]": {"biological_target": "T12, CFP-YQNSS-YFP-6xHis substrate (clone C9)", "T12 chain": "GALGGYQNSSGST"}, "[13]": {"biological_target": "T13, CFP-PDRHM-YFP-6xHis substrate (peptide F3)", "T13 chain": "GALGGPDRHMGST"}, "[14]": {"biological_target": "T14, CFP-QRLRD-YFP-6xHis substrate (peptide F11)", "T14 chain": "GALGGQRLRDGST"}, "[15]": {"biological_target": "T15, CFP-QPNGY-YFP-6xHis substrate (clone F1)", "T15 chain": "GALGGQPNGYGST"}, "[16]": {"biological_target": "T16, CFP-LSGGR-YFP-6xHis substrate (peptide E2)", "T16 chain": "GALGGLSGGRGST"}, "[17]": {"biological_target": "T17, CFP-RQTND-YFP-6xHis substrate (peptide C11)", "T17 chain": "GALGGRQTNDGST"}, "[18]": {"biological_target": "T18, CFP-RVTST-YFP-6xHis substrate (peptide E12)", "T18 chain": "GALGGRVTSTGST"}, "[19]": {"biological_target": "T19, CFP-MQATK-YFP-6xHis substrate (clone F4)", "T19 chain": "GALGGMQATKGST"}, "[20]": {"biological_target": "T20, CFP-NNKLR-YFP-6xHis substrate (peptide E9)", "T20 chain": "GALGGNNKLRGST"}, "[21]": {"biological_target": "T21, CFP-STKGI-YFP-6xHis substrate (clone G3)", "T21 chain": "GALGGSTKGIGST"}, "[22]": {"biological_target": "T22, CFP-MQVKH-YFP-6xHis substrate (clone E6)", "T22 chain": "GALGGMQVKHGST"}, "[23]": {"biological_target": "T23, CFP-KLKET-YFP-6xHis substrate (clone F5)", "T23 chain": "GALGGKLKETGST"}, "[24]": {"biological_target": "T24, CFP-NQRSS-YFP-6xHis substrate (peptide E5)", "T24 chain": "GALGGNQRSSGST"}, "[25]": {"biological_target": "T25, CFP-SDKVY-YFP-6xHis substrate (clone C5)", "T25 chain": "GALGGSDKVYGST"}, "[26]": {"biological_target": "T26, CFP-PVHLY-YFP-6xHis substrate (clone F12)", "T26 chain": "GALGGPVHLYGST"}, "[27]": {"biological_target": "T27, CFP-AYGYK-YFP-6xHis substrate (peptide E1)", "T27 chain": "GALGGAYGYKGST"}, "[28]": {"biological_target": "T28, CFP-LSRDN-YFP-6xHis substrate (peptide E7)", "T28 chain": "GALGGLSRDNGST"}, "[29]": {"biological_target": "T29, CFP-RVDTG-YFP-6xHis substrate (clone D11)", "T29 chain": "GALGGRVDTGGST"}, "[30]": {"biological_target": "T30, CFP-TTDLR-YFP-6xHis substrate (clone E4)", "T30 chain": "GALGGTTDLRGST"}, "[31]": {"biological_target": "T31, CFP-LQRAI-YFP-6xHis substrate (peptide E8)", "T31 chain": "GALGGLQRAIGST"}, "[32]": {"biological_target": "T32, CFP-AYGLA-YFP-6xHis substrate (clone G5)", "T32 chain": "GALGGAYGLAGST"}}}
{"protein": "B1", "values": [{"measurement": "kcat/Km", "setting": "[1]", "value": 12000, "unit": "M⁻¹ s⁻¹"}, {"measurement": "Kcat/Km", "setting": "[2]", "value": 12000, "unit": "M⁻¹ s⁻¹"}, {"measurement": "kcat/Km", "setting": "[2]", "value": 12000, "unit": "M⁻¹ s⁻¹"}, {"measurement": "Kcat/Km", "setting": "[3]", "value": 9000, "unit": "M⁻¹ s⁻¹"}, {"measurement": "kcat/Km", "setting": "[3]", "value": 9000, "unit": "M⁻¹ s⁻¹"}, {"measurement": "Kcat/Km", "setting": "[4]", "value": 18000, "unit": "M⁻¹ s⁻¹"}, {"measurement": "kcat/Km", "setting": "[4]", "value": 18000, "unit": "M⁻¹ s⁻¹"}, {"measurement": "kcat/Km", "setting": "[5]", "value": 8000, "unit": "M⁻¹ s⁻¹"}, {"measurement": "Kcat/Km", "setting": "[6]", "value": 80000, "unit": "M⁻¹ s⁻¹"}, {"measurement": "kcat/Km", "setting": "[6]", "value": 80000, "unit": "M⁻¹ s⁻¹"}, {"measurement": "kcat/Km", "setting": "[7]", "value": 9000, "unit": "M⁻¹ s⁻¹"}, {"measurement": "Kcat/Km", "setting": "[8]", "value": 481000, "unit": "M⁻¹ s⁻¹"}, {"measurement": "kcat/Km", "setting": "[8]", "value": 481000, "unit": "M⁻¹ s⁻¹"}, {"measurement": "Kcat/Km", "setting": "[9]", "value": 134000, "unit": "M⁻¹ s⁻¹"}, {"measurement": "kcat/Km", "setting": "[9]", "value": 134000, "unit": "M⁻¹ s⁻¹"}, {"measurement": "kcat/Km", "setting": "[10]", "value": 5000, "unit": "M⁻¹ s⁻¹"}, {"measurement": "Kcat/Km", "setting": "[11]", "value": 15000, "unit": "M⁻¹ s⁻¹"}, {"measurement": "kcat/Km", "setting": "[11]", "value": 15000, "unit": "M⁻¹ s⁻¹"}, {"measurement": "kcat/Km", "setting": "[12]", "value": 6000, "unit": "M⁻¹ s⁻¹"}, {"measurement": "Kcat/Km", "setting": "[13]", "value": 243000, "unit": "M⁻¹ s⁻¹"}, {"measurement": "kcat/Km", "setting": "[13]", "value": 243000, "unit": "M⁻¹ s⁻¹"}, {"measurement": "Kcat/Km", "setting": "[14]", "value": 307000, "unit": "M⁻¹ s⁻¹"}, {"measurement": "kcat/Km", "setting": "[14]", "value": 307000, "unit": "M⁻¹ s⁻¹"}, {"measurement": "kcat/Km", "setting": "[15]", "value": 6000, "unit": "M⁻¹ s⁻¹"}, {"measurement": "Kcat/Km", "setting": "[16]", "value": 207000, "unit": "M⁻¹ s⁻¹"}, {"measurement": "kcat/Km", "setting": "[16]", "value": 207000, "unit": "M⁻¹ s⁻¹"}, {"measurement": "Kcat/Km", "setting": "[17]", "value": 415000, "unit": "M⁻¹ s⁻¹"}, {"measurement": "kcat/Km", "setting": "[17]", "value": 415000, "unit": "M⁻¹ s⁻¹"}, {"measurement": "Kcat/Km", "setting": "[18]", "value": 26000, "unit": "M⁻¹ s⁻¹"}, {"measurement": "kcat/Km", "setting": "[18]", "value": 26000, "unit": "M⁻¹ s⁻¹"}, {"measurement": "kcat/Km", "setting": "[19]", "value": 8000, "unit": "M⁻¹ s⁻¹"}, {"measurement": "Kcat/Km", "setting": "[20]", "value": 74000, "unit": "M⁻¹ s⁻¹"}, {"measurement": "kcat/Km", "setting": "[20]", "value": 74000, "unit": "M⁻¹ s⁻¹"}, {"measurement": "kcat/Km", "setting": "[21]", "value": 20000, "unit": "M⁻¹ s⁻¹"}, {"measurement": "kcat/Km", "setting": "[22]", "value": 34000, "unit": "M⁻¹ s⁻¹"}, {"measurement": "kcat/Km", "setting": "[23]", "value": 19000, "unit": "M⁻¹ s⁻¹"}, {"measurement": "Kcat/Km", "setting": "[24]", "value": 388000, "unit": "M⁻¹ s⁻¹"}, {"measurement": "fold selectivity of cleavage against PK", "setting": "[24]", "value": "27 and 78 fold more selective for hK14 than for hK2 and PK, respectively"}, {"measurement": "fold selectivity of cleavage against hK2", "setting": "[24]", "value": "27 and 78 fold more selective for hK14 than for hK2 and PK, respectively"}, {"measurement": "kcat/Km", "setting": "[24]", "value": 388000, "unit": "M⁻¹ s⁻¹"}, {"measurement": "hydrolysis of fluorescent substrate", "setting": "CFP-GGGGG-YFP", "value": "is not hydrolyzed by hK14 (not shown)"}, {"measurement": "kcat/Km", "setting": "[25]", "value": 9000, "unit": "M⁻¹ s⁻¹"}, {"measurement": "kcat/Km", "setting": "[26]", "value": 7000, "unit": "M⁻¹ s⁻¹"}, {"measurement": "Kcat/Km", "setting": "[27]", "value": 24000, "unit": "M⁻¹ s⁻¹"}, {"measurement": "kcat/Km", "setting": "[27]", "value": 24000, "unit": "M⁻¹ s⁻¹"}, {"measurement": "Kcat/Km", "setting": "[28]", "value": 127000, "unit": "M⁻¹ s⁻¹"}, {"measurement": "kcat/Km", "setting": "[28]", "value": 127000, "unit": "M⁻¹ s⁻¹"}, {"measurement": "kcat/Km", "setting": "[29]", "value": 15000, "unit": "M⁻¹ s⁻¹"}, {"measurement": "kcat/Km", "setting": "[30]", "value": 27000, "unit": "M⁻¹ s⁻¹"}, {"measurement": "Kcat/Km", "setting": "[31]", "value": 367000, "unit": "M⁻¹ s⁻¹"}, {"measurement": "kcat/Km", "setting": "[31]", "value": 367000, "unit": "M⁻¹ s⁻¹"}, {"measurement": "kcat/Km", "setting": "[32]", "value": 6000, "unit": "M⁻¹ s⁻¹"}]}
{"protein": "B2", "values": [{"measurement": "Kcat/Km", "setting": "[2]", "value": 49000, "unit": "M⁻¹ s⁻¹"}, {"measurement": "Kcat/Km", "setting": "[3]", "value": 90000, "unit": "M⁻¹ s⁻¹"}, {"measurement": "Kcat/Km", "setting": "[9]", "value": 181000, "unit": "M⁻¹ s⁻¹"}, {"measurement": "Kcat/Km", "setting": "[11]", "value": 65000, "unit": "M⁻¹ s⁻¹"}, {"measurement": "Kcat/Km", "setting": "[18]", "value": 200000, "unit": "M⁻¹ s⁻¹"}, {"measurement": "Kcat/Km", "setting": "[31]", "value": 209000, "unit": "M⁻¹ s⁻¹"}]}
